# According to the supplement of paper PMC12042874:
# ± gives the uncertainty stated by the source.
# Test: amyloid nucleation score (Sup35N fusion, yeast selection) (log enrichment); library NNK1; higher = more nucleation; inactive = no reads after selection
# How it was run: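 DiMSum was used to calculate nucleation scores as log enrichment of output over input reads, centred on the mode score of non-aggregating sequences. Sequences with fewer than 100 input reads were not scored. Input and output came from Illumina sequencing of plasmid inserts in psi-negative yeast expressing peptides of 20 random codons fused to Sup35N, induced 24 hours with 100 μM copper sulfate and then grown 7 days at 30°C on medium lacking adenine and uracil.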
row,Substance,amyloid nucleation score
1,VYSEVSFDF,inactive
2,VYSWNNYGDRKILMLFLTGY,4.63 ± 0.065
3,VYTSTVMFEHMDRNMLMVKM,0.166 ± 0.21
4,VYVDSCCHMF,7.508 ± 0.069
5,VYVIIWSIILGRTVAGWMYY,inactive
6,VYWRFPRSNGEWYNMLVLKD,-0.576 ± 0.53
7,VYWRREVSI,0.312 ± 1.2
8,WACMWAQSPYGAFFIVSMED,-0.223 ± 0.38
9,WCGKACFVYKSHGQGG,0.235 ± 0.53
10,WCRCTINFRHEDLNPFFNPK,2.01 ± 0.16
11,WCRIVG,0.227 ± 0.57
12,WCWNAAQLSMVYSDMNFVAV,0.675 ± 1
13,WDCYCPWLTLKYEAGLRTSG,-1.17 ± 1.9
14,WDWVYGKFLR,0.736 ± 0.26
15,WDYSRLLFAYNKIVTERNNG,-0.356 ± 0.29
16,WEFRRWGLRLHLSFLASLGA,-0.015 ± 0.25
17,WEGGGMGNYVQRHACARHKV,0.125 ± 0.3
18,WEWIQDVWVPHISDPLSWAI,-1.2 ± 0.83
19,WFSINIGKMGARVLSVGQDG,inactive
20,WFVTFVWVSSVRTILP,0.361 ± 1
21,WFWIMIFRHCNVIL,0.404 ± 0.5
22,WFYTVARPNVSSSLESRTEP,0.137 ± 0.22
23,WGIFSMYHWRYAVRDRSMHS,inactive
24,WGPRSVNGTLRI,-0.488 ± 0.32
25,WGQFYVLTSVLHYINQWH,-2.58 ± 2.7

row,Substance,amyloid nucleation score
1,WGQTWDVFY,0.916 ± 0.46
2,WGTLVIGCFVHTVNLHNRKR,6.809 ± 0.048
3,WHFFVKKRVRCDSHSSMQWN,-0.677 ± 0.69
4,WHPYYIQVKGILALLSSVHH,3.18 ± 0.073
5,WHSISYF,inactive
6,WIATC,0.214 ± 0.29
7,WICMAP,3.42 ± 0.089
8,WIGGVKG,-0.427 ± 0.72
9,WIGNRVSSMFDGTGS,0.538 ± 0.55
10,WIHACK,0.778 ± 0.45
11,WIKLRLGFKRSFIPECGFLG,-0.208 ± 0.54
12,WIMKGY,-0.123 ± 1.1
13,WINYRRDPTAHSNSYFRVGI,0.059 ± 0.58
14,WIVSFMAIRH,1.51 ± 0.25
15,WIYGWACWYCNLNDSTRVGK,5.798 ± 0.047
16,WKASFIRFWFVAIMFMYNLC,-0.1 ± 0.42
17,WKRSEINDVFVM,inactive
18,WKYIMHLSRFYVFPCSTERG,0.112 ± 0.87
19,WLAFWCDLGVSSSFFWAFCG,-0.066 ± 0.37
20,WLLTNPPLIVFTVRRNSRFS,-1.09 ± 1.9
21,WLQTTYLGLFMVFTGFEGY,-0.586 ± 0.55
22,WMEVHWGGNVSLDSSYMELF,-0.044 ± 1.1
23,WNASMQSTGWFDILIYMCPV,3.19 ± 0.11
24,WNDSYRINSTGCHDCLYRLF,-0.37 ± 0.3
25,WNHFERMEKPA,-0.639 ± 1.2

row,Substance,amyloid nucleation score
1,WNYTLGRCRTLGYAVAVLDI,-0.389 ± 1
2,WPELIFNGVPMSSCVLPGLF,1.12 ± 0.6
3,WPNNRVQFCSCGSRFSCLGS,0.933 ± 0.85
4,WPPMQGLSLSSLSSINHPHT,0.76 ± 1.1
5,WPRNFYFMFRCLGMAAREMC,0.285 ± 0.63
6,WQHSPTYGYLYIHC,0.633 ± 0.18
7,WRAYFACYNILESAFLLVQL,inactive
8,WRLSLYPQPLGLWAEATLDT,-0.209 ± 0.53
9,WRSNI,-0.151 ± 0.49
10,WRVSMFGLSESLDRLPCKDL,-0.371 ± 0.45
11,WSFLANFNWMN,0.157 ± 1.4
12,WSFQPGRVVFHMFERGDHCC,0.187 ± 0.4
13,WSGIVFRIEGVAYVVHVNDA,1.17 ± 0.18
14,WSLDSNKSWSCFKCLCFYCG,6.223 ± 0.054
15,WSRTDRDDLLVYMKLPRHVY,0.472 ± 0.37
16,WTCMKSFVMWQSLDFVHFIA,0.85 ± 0.98
17,WTRKS,-0.067 ± 0.35
18,WTRSFRAFGSSVYWEGRGNH,1.22 ± 0.26
19,WVHWWFRHVNMACQNGGFIF,-0.565 ± 0.68
20,WVILVNDGVNVCCFSVRVWA,-0.903 ± 2.4
21,WVLWYSLLLTDGGDLIESTW,-0.156 ± 0.23
22,WVNGMYQGRNEYDEKI,-0.455 ± 0.56
23,WVPGITVKMRYGPESIVDWR,0.565 ± 1.1
24,WVSFCNFDGKKFGAVRAHYY,-2 ± 0.97
25,WVSKNRSSFMGCSSFTATWT,0.884 ± 0.69

row,Substance,amyloid nucleation score
1,WVSSDITGRG,1.87 ± 0.65
2,WVWFCNEF,-0.307 ± 0.57
3,WVWLHDKASLNLL,0.007 ± 0.72
4,WWRIIGTEAQNMGG,0.631 ± 0.55
5,WYENMFN,3.15 ± 0.14
6,WYEVRYMLTQSYRVHMLFLI,-0.322 ± 1.7
7,WYKSYVITFITDTLVVDRET,2.41 ± 0.16
8,WYNGNKSHGRRVPGVQPRAL,-0.046 ± 0.46
9,WYRGMHLVARRFMTYLARKY,1.32 ± 0.65
10,WYRQSAFNVLTDSLIILLVC,4.99 ± 0.07
11,WYVFLYFGCEKAMALSTNMT,inactive
12,WYVMRLKLVCI,0.156 ± 0.87
13,WYYITS,0.295 ± 0.67
14,YAERLIRKWS,0.06 ± 0.28
15,YAIRHLKIGSGWWSLWMSSM,-0.522 ± 0.34
16,YAISGAGYMLF,0.027 ± 1.7
17,YAKHCAEGYGFLGWSLWAVR,0.106 ± 0.34
18,YASTPWYYMCWFIWAYCFSS,inactive
19,YCGGRKG,0.144 ± 0.34
20,YCLFNLESG,0.315 ± 0.53
21,YCMRFVQ,1.52 ± 0.49
22,YCSTSYRSSHNRSGVWKGTL,1.62 ± 0.55
23,YCTGSRVVPDGSLVYATCNM,0.895 ± 0.65
24,YCTVVKFLHATFQFSNPLGM,1.58 ± 0.48
25,YDFVIFLGHDACEIYCFLRS,0.935 ± 0.56

row,Substance,amyloid nucleation score
1,YDIQVISPPSKM,0.202 ± 0.31
2,YECGFLLSLVRATKLLNSAC,0.146 ± 0.28
3,YEFMWRVNTLWRENLFYSGR,0.156 ± 0.59
4,YEFVRRDHVPFRLGMSNPED,1.76 ± 0.53
5,YELDWWSLLQE,1.12 ± 0.4
6,YFAAVIRRFGWTDIERSHQC,0.233 ± 0.79
7,YFLTFRFCFSVNEVIDPWCA,-0.725 ± 1.1
8,YFPIGYFVRKEDYGTCENDD,0.386 ± 0.31
9,YFQTRSAKRVCSNQIHVLRW,3.08 ± 0.12
10,YFRLHSFFFVESQGICVELR,-0.251 ± 0.69
11,YFRYWNSLIGIKDSD,1.17 ± 0.39
12,YFSDIAMWHSEIVR,-0.605 ± 0.73
13,YFSQPMLLRSSGRAVNSRMR,-1.66 ± 2.4
14,YFVQYLYTLMLACYYWVISY,-1.61 ± 1.4
15,YGFCGLMHSNSIHYSNMQSR,0.685 ± 0.48
16,YGFLVKS,0.1 ± 0.9
17,YGGIVNDVFAGLQNIMGVAL,0.334 ± 0.54
18,YGKWWWVYRKTSVRRGDGAG,0.49 ± 0.54
19,YGLATFMGKES,-0.104 ± 0.85
20,YGLFWN,-1.37 ± 1.5
21,YGTRVFIGSIRYFRTEEAKI,0.35 ± 0.72
22,YGYAAYVDMRSGL,-0.257 ± 0.33
23,YHNCDKDAANLFYCQ,2.01 ± 0.47
24,YHWILKSCLWMVWSSVYLPI,-0.663 ± 1.7
25,YIAQSFELKA,0.23 ± 0.53

row,Substance,amyloid nucleation score
1,YIDIVSQKC,0.922 ± 0.62
2,YIGTKCWNANHVVLLLFCRG,-0.127 ± 0.32
3,YIIYGWVEIF,-1.14 ± 2.1
4,YIKMIR,-0.759 ± 0.97
5,YILPFFGRHYNRHGVFAGAM,-0.647 ± 0.9
6,YILSFFCVVEARDFFVDFEM,5 ± 0.062
7,YILWNHNGLNGWGFAGITLF,-0.994 ± 0.51
8,YIPFGLIYHGKLG,-0.969 ± 2.1
9,YIRGNFYSYQWGNCFMGNFC,7.792 ± 0.05
10,YIRNTLTPEMVNWRDLRVPR,-0.152 ± 0.73
11,YISEM,0.544 ± 0.35
12,YISLRFISYYYYVRGKFYMK,0.672 ± 0.56
13,YIWQGTRFQRGNRIYIGSQG,0.271 ± 0.54
14,YKCMSKIFQFLVWAGEEWGL,-0.398 ± 1.1
15,YKGRTPSSRLASLVCRGG,-0.198 ± 0.64
16,YKHKTFIPRFTYNETVVYYV,4.85 ± 0.087
17,YKRCAPDRHYG,1.06 ± 0.58
18,YKSISSDSAKWFVMGLNGLV,-1.6 ± 1.1
19,YKSLMFWLVLVSVFMIRRNI,2.62 ± 0.26
20,YKTYMFYCTSFQSGPCSRLI,-0.634 ± 0.35
21,YLCKVRACTRKSQSLLCGAS,0.678 ± 0.65
22,YLDDIH,-0.105 ± 0.44
23,YLDVLGAFC,-0.214 ± 0.47
24,YLDWTVSALNWAMRMGSTVR,0.381 ± 0.31
25,YLFFNLYCNYVLTAMLRACS,inactive

row,Substance,amyloid nucleation score
1,YLGQWFNYTCYQWVMV,1.37 ± 0.21
2,YLGRVSFIGHFVVTVSGSSQ,1.1 ± 0.21
3,YLIEFCPL,-0.225 ± 0.34
4,YLIRHIENGCSTQCRSTSWV,inactive
5,YLLCFCR,0.354 ± 0.27
6,YLLESSTIGIV,0.474 ± 0.69
7,YLPYVNLAG,-1.07 ± 2.4
8,YLSLTTEVWSNGHVWCGIGR,-0.043 ± 1.4
9,YLSRGNY,-0.245 ± 0.79
10,YLTWQKTWRVRVSVLCTGTD,0.638 ± 0.58
11,YLTYAPQVWLSAGFNSNEGS,5.71 ± 0.078
12,YLVSYMWVSLDDLSLYRANG,0.585 ± 0.52
13,YLVWCIESITLGFMGELGAR,0.199 ± 0.57
14,YMAFYPCWVHHKMIEKLCRC,-0.076 ± 0.71
15,YMASYGNLVGMFDAIQVLIV,1.08 ± 0.31
16,YMCGLSECAS,5 ± 0.062
17,YMFVMEKARTSIYLSMRNYC,-0.419 ± 0.39
18,YMGGEWKD,6.801 ± 0.06
19,YMNWFITGHDVGRYLIQFFV,-1.74 ± 2.4
20,YMPPNGKCSKVCLLRGGDYM,0.719 ± 0.37
21,YNCYREGAWSITIRWIANRV,0.124 ± 0.34
22,YNGLGIEETNWAARGS,-1.12 ± 1.1
23,YNIALCINSQVRESRRPVGV,5.24 ± 0.072
